# Measured values: publication PMC11306395, “Structural basis for the interaction between human coronavirus HKU1 spike receptor binding domain and its receptor TMPRSS2” (Cell Discovery, 2024)
# B1: HKU1-B (1B) spike S1 receptor-binding domain (domain or fragment)
# chain: NLPDCDIDNWLNNVSVPSPLNWERRIFSNCNFNLSTLLRLVHVDSFSCNNLDKSKIFGSCFNSITVDKFAIPNRRRDDLQLGSSGFLQSSNYKIDISSSSCQLYYSLPLVNVTINNFNPSSWNRRYGFGSFNLSSYDVVYSDHCFSVNSDFCPCADPSVVNSCAKSKPPSAICPAGTKYRHCDLDTTLYVKNWCRCSCLPDPISTYSPNTCPQKKVVVGIGEHCPGLGINEEKCGTQLNHSSCFCSPDAFLGWSFDSCISNNRCNIFSNFIFNGINSGTTCSNDL
# modifications: N-glycosylated; disulfides C504-C518 and C520-C533. Construct limits are only in the schematic (Fig. 1a), so they are taken from the paper's own deposited entity 8YQQ; the assayed construct may …
# B2: HKU1-A (1A) spike S1 receptor-binding domain (domain or fragment)
# chain: SGFTVKPVATVHRRIPDLPDCDIDKWLNNFNVPSPLNWERKIFSNCNFNLSTLLRLVHTDSFSCNNFDESKIYGSCFKSIVLDKFAIPNSRRSDLQLGSSGFLQSSNYKIDTTSSSCQLYYSLPAINVTINNYNPSSWNRRYGFNNFNLSSHSVVYSRYCFSVNNTFCPCAKPSFASSCKSHKPPSASCPIGTNYRSCESTTVLDHTDWCRCSCLPDPITAYDPRSCSQKKSLVGVGEHCAGFGVDEEKCGVLDGSYNVSCLCSTDAFLGWSYDTCVSNNRCNIFSNFILNGINSGTTCSNDLLQPNTEVFTDVCVDYDLYGITGQGIFKEVSAVYYNSWQNLLYDSNGNIIGFKDFVTNKTYNIFPCYAG
# modifications: N-glycosylated; disulfides C504-C518 and C520-C533. Construct limits are only in the schematic (Fig. 1a), so they are taken from the paper's own deposited entity 8YOY (start and end shown match …)
# Target: T1, transmembrane serine protease 2 (TMPRSS2) ectodomain (human, UniProt O15393 106-492)
# T1 construct: Transmembrane serine protease 2 (TMPRSS2), ectodomain; also called TMRPSS2; source: purified
# T1 sequence (O15393 106-492): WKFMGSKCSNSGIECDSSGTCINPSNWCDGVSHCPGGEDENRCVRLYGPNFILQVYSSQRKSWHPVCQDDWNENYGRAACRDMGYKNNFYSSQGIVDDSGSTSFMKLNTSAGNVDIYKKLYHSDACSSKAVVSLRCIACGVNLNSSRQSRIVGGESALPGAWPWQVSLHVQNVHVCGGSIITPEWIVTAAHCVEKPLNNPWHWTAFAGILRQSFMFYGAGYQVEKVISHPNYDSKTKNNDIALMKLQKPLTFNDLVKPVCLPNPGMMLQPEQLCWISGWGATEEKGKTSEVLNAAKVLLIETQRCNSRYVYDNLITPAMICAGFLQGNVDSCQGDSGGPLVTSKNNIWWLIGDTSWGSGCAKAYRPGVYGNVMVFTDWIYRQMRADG
# Test: BLI; bio-layer interferometry titrations of RBD-TMPRSS2; which partner was immobilised and the conditions are not told
# Conditions: both partners purified
row,Binder,Kd
1,B1,170 nM
2,B2,323 nM
